The term Kd denotes the constant that tells how readily two partners part at equilibrium. A lower Kd goes with a tighter complex.

The results in this text go back to article doi:10.1101/2022.04.13.488184.

For this test, the target named is Sulfolobus acidocaldarius SRP54 (Sulfolobus acidocaldarius) (UniProt O07853). Nature of the test: FRET or BRET. Background: Bioluminescence resonance energy transfer reports proximity on the nanometre scale.
Sequence of UniProt O07853 (O07853 whole entry): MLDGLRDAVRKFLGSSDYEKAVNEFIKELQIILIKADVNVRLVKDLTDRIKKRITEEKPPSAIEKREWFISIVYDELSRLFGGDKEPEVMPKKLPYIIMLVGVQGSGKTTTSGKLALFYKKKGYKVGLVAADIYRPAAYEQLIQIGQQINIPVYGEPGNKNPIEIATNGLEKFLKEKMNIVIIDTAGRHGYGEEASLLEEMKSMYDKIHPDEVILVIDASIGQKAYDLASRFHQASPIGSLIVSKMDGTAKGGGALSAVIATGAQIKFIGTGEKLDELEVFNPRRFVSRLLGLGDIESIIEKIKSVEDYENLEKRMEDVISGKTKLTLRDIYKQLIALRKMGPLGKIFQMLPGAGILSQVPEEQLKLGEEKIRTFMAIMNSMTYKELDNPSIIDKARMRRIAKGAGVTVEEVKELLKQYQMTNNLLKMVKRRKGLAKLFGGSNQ

In turn, “FtsYΔαN3 (Gly129-Ser369) (from UniProt P27414 129-369) (domain or fragment)” gave a Kd of 272 nM.

In turn, “FtsYΔαN1 (Tyr87-Ser369) (from UniProt P27414 87-369) (domain or fragment)” gave a Kd of 75 nM.

As to “FtsYΔαN2 (Ser109-Ser369) (from UniProt P27414 109-369) (domain or fragment)”, the Kd came to 114 nM.
